From patent US9393284B2, “Visfatin therapeutic agents for the treatment of acne and other conditions” (ARAVA BIO-TECH LTD., priority 2009, dated 2016)

How the values were obtained:
sebaceous glands [1] = experiment: Maturation and sebum accumulation of sebaceous glands in newborn BalbC mice treated with visfatin (Oil Red O, H&E); format: in vivo, Mus musculus
Procedure: Preparation of Frozen Skin Sections: Skin biopsies were embedded in optimum cutting temperature compound (OCT) and immediately sectioned by cryostat-microtome and mounted on slides.
(§1) Hematoxylin & Eosin Staining: Paraffin embedded skin biopsy section slides were incubated at 60° C. for 60 minutes and deparaffinized by washing the slides twice with toluene (100%) for 10 minutes and rehydrating the skin biopsy section slides in decreasing concentration of ethanol (100-50%) for 5 minutes each. The slides then were stained with a ready to use solution of hematoxylin for 5 minutes, rinsed with water, stained with eosin (0.5% in double distilled water) for 1.5 minutes and washed twice by rapid immersion in 70% ethanol. Thereafter, the slides were dehydrated by washing once with 95% ethanol for 5 minutes, twice with 100% ethanol for 5 minutes and twice with xylene (100%) for 10 minutes. This was followed by the application of ENTELLAN™ (Merck KGaA, Darmstadt, Germany) and the mounting of coverslips.
Oil Red O Staining: Frozen skin biopsy section slides were fixed in 1% neutral-buffered formalin for 5 minutes, washed in deionized water, and incubated in 60% isopropanol for 5 minutes. […]

sebaceous glands [2] = experiment: Number of sebocytes in sebaceous glands of adult BalbC mice after topical or intradermal visfatin (H&E staining); format: in vivo, Mus musculus; details: 0.01 μg/ml, 200 μL once daily for 4 days
Procedure: Preparation of Paraffin Embedded Skin Sections: Skin biopsies were performed on study mice. Skin biopsy samples were fixed in 4% paraformaldehyde then dehydrated with increasing concentrations of ethanol (50-100%). Dehydrated biopsy samples were immersed twice in xylene, then once in a 1:1 solution of paraffin and xylene and finally three times in pure melted paraffin at a temperature of 60° C. Paraffin blocks were then sectioned with a microtome and the resulting sections were mounted on slides.
as §1, with “Thereafter, the slides were dehydrated by washing once with 95% ethanol for 5 minutes, twice with 100% ethanol for 5 minutes and twice with xylene (100%) for 10 minutes. This was followed by the application of ENTELLAN™ (Merck KGaA, Darmstadt, Germany) and the mounting of coverslips.” left out
Skin samples were fixed in 4% paraformaldehyde and paraffin embedded. The number of cells with the bubbled shaped morphology characteristic of sebocytes were then counted and calculated as a percentage of the number of total cells in each sebaceous gland by microscopic examination at a magnification of 40× using a Nikon Eclipse 50i microscope. […]

B1: visfatin: recombinant Mus musculus visfatin (Enzo Life Sciences), in PBS, topical or intradermal solution (protein, UniProt Q99KQ4 1-491, looked up)
Nicotinamide …: MNAAAEAEFNILLATDSYKVTHYKQYPPNTSKVYSYFECREKKTENSKVRKVKYEETVFYGLQYILNKYLKGKVVTKEKIQEAKEVYREHFQDDVFNERGWNYILEKYDGHLPIEVKAVPEGSVIPRGNVLFTVENTDPECYWLTNWIETILVQSWYPITVATNSREQKKILAKYLLETSGNLDGLEYKLHDFGYRGVSSQETAGIGASAHLVNFKGTDTVAGIALIKKYYGTKDPVPGYSVPAAEHSTITAWGKDHEKDAFEHIVTQFSSVPVSVVSDSYDIYNACEKIWGEDLRHLIVSRSTEAPLIIRPDSGNPLDTVLKVLDILGKKFPVTENSKGYKLLPPYLRVIQGDGVDINTLQEIVEGMKQKKWSIENVSFGSGGALLQKLTRDLLNCSFKCSYVVTNGLGVNVFKDPVADPNKRSKKGRLSLHRTPAGNFVTLEEGKGDLEEYGHDLLHTVFKNGKVTKSYSFDEVRKNAQLNIEQDVAPH
B1 was tested, and the “sebum in sebaceous glands based on Oil Red O staining” value (sebaceous glands [1]; topical visfatin 0.01 μg/ml 100 μL once daily, day 3 after birth) was “do contain sebum”, the “maturation of sebaceous glands (H&E staining)” value (sebaceous glands [1]; topical visfatin, day 4 after birth) was “induces the maturation of sebaceous glands” and the “number of sebocytes present inside the sebaceous glands relative to control mice” value (sebaceous glands [2]; intradermal) was “increased”. For the same molecule, the “number of sebocytes present inside the sebaceous glands relative to control mice” value (sebaceous glands [2]; topical) was “increased”.
